For data set [1] the following is noted: cited from earlier work.
For a further data set, the system named is SW480. The data set can be described thus: Inhibitory activity of ADC on cell viability in vitro (CCK8), SW480. Conditions: Homo sapiens, SW480, 168 h, 7 days incubation. The class given is cell-based. How it is done: (§1) HT29, NCI-H358 (HT29 and NCI-H358 are B7H3 positive tumor cells), SW480, A375, A549, and Calu-3 (Calu-3 is B7H3 negative tumor cells) tumor cells were digested by trypsin using conventional methods. Cells in the tube were collected and counted, then resuspended in the corresponding assay medium (containing 2% FBS), and added to a 96-well plate at 2000 to 5000 cells/well. 100 μL of ADC diluted in 2% FBS medium was added to the 96-well plate, with 3-fold serial dilution at an initial concentration of 150 µg/mL (12 concentration gradients). The plate was incubated at 37° C. under 5% CO2 for 7 days. 20 μL of CCK8 reagent was then added to each well, and the reaction was carried out for 2 to 6 hours. The plate was read on a microplate reader (detection wavelength: 450 nm). The test results are shown in Table 3-1, Table 3-2, and FIGS. 7A to 7E.

For a further data set, the system named is A375. The experiment in a line: Inhibitory activity of ADC on cell viability in vitro (CCK8), A375. Conditions: Homo sapiens, A-375, 168 h, 7 days incubation. The class given is cell-based. How it is done: as §1
In a further data set the test system is A549. The data set can be described thus: Inhibitory activity of ADC on cell viability in vitro (CCK8), A549. The data set is classed as cell-based. Conditions: Homo sapiens, A549, 168 h, 7 days incubation. As to the method: as §1
Another data set has as its system HT29. The experiment in a line: Inhibitory activity of ADC on cell viability in vitro (CCK8), HT29. Conditions: Homo sapiens, HT-29, 168 h, 7 days incubation, B7H3 positive tumor cells. The class given is cell-based. How it is done:
as §1

The target in data set [2] is T1, human B7H3-4IgG-His protein (Homo sapiens, UniProt Q5ZPR3).
T1 construct: amino acids at positions 27 to 461 (Uniport protein No. Q5ZPR3-1) of human 4Ig B7H3; 6xHis (C); made in house; host or cells: HEK293F (transient, PTT5 vector)
T1 sequence (Q5ZPR3 27-461): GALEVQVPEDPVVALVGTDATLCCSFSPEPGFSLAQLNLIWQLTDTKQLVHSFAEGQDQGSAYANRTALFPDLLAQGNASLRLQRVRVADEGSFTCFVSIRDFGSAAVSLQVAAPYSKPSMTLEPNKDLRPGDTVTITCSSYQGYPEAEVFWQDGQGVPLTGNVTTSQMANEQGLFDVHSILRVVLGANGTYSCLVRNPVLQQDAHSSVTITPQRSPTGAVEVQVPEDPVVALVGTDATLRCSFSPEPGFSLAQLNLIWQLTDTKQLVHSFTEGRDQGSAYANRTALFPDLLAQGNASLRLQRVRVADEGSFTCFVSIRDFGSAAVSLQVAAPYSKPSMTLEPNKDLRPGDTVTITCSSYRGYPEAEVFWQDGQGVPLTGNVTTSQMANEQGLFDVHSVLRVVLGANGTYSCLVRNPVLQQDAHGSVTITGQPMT
The experiment in a line: ELISA protein affinity assay of anti-B7H3 antibody, human protein. The data set is classed as binding. The note with it: coated protein. As to the method: The plate was washed five times with PBST. […] The absorbance was measured at 450 nm.
(In general: An ELISA detects its analyte on a solid surface through an enzyme-linked reagent.)

The test system of another data set is MCF-7 tumor cells. The data set can be described thus: Cell affinity assay of anti-B7H3 antibody by FACS, MCF-7. The data set is classed as binding. The note with it: flow cytometry. How it is done:
(§2) B7H3 protein is highly expressed in a variety of solid tumor cells. The affinity of B7H3 full human antibody to tumor cells was tested by FACS. Specific experimental procedures: MCF-7 breast cancer cells, A549 human non-small cell lung cancer cells, and PC3 human prostate cancer cells grown to logarithmic phase were digested by trypsin, and resuspended to 5*10^5 cells/mL in PBS buffer containing 2% BSA. 100 μL of cell suspension was added to a 96-well plate. […] 100 μL of antibody suspension was then added into the 96-well plate and mixed homogeneously. The plate was incubated at 4° C. for 1 hour, washed twice with pre-cooled PBS at 300 μL/well each time, and centrifuged at 500 g for 5 minutes. 1:50 fluorescent secondary antibody APC anti-human IgG or PE anti-human IgG (purchased from Biolegend) was added at 100 μL/well and mixed homogeneously. The plate was incubated at 4° C. for 0.5 hours, washed twice with pre-cooled PBS at 300 μL/well each time, centrifuged at 500 g for 5 minutes, and resuspended in 500 μL of PBS. The average fluorescence signal value was measured by Beckman flow cytometer. The EC50 value was calculated from the average fluorescence signal value.

The test system of the next data set is A549 tumor cells. The data set can be described thus: Cell affinity assay of anti-B7H3 antibody by FACS, A549. The class given is binding, human. The note with it: flow cytometry; middle B7H3-expressing cells. As to the method: as §2
Background: In flow cytometry, cells or beads pass a laser one at a time.

The test system of the next data set is PC-3 tumor cells. The experiment in a line: Cell affinity assay of anti-B7H3 antibody by FACS, PC-3. The class given is binding, human. Conditions: flow cytometry. How it is done: as §2
The target of data set [3] is B7H3 protein on human tumor cells (MCF-7, A549, PC-3, HT29) (human) (UniProt Q5ZPR3). The experiment in a line: flow cytometry on A549 tumor cells.
Sequence of B7H3 protein on human tumor cells (MCF-7, A549, PC-3, HT29) (human) (Q5ZPR3 29-534): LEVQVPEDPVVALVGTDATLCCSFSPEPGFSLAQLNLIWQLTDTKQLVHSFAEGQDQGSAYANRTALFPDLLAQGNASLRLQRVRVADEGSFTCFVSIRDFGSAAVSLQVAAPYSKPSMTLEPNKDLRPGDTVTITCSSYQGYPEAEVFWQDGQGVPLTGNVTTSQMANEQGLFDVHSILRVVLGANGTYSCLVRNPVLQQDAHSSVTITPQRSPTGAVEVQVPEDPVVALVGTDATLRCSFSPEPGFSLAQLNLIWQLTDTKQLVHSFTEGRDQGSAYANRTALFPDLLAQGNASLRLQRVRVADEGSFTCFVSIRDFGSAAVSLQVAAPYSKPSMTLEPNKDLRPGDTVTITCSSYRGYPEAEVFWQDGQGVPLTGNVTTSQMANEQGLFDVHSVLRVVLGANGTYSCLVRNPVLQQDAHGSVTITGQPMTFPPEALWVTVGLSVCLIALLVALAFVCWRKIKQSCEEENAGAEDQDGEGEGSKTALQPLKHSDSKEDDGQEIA
For data set [4] the target is unchanged. The data set can be described thus: flow cytometry on A549 tumor cells. The source holds these as a separate data set.
Data set [5] shares this target. The experiment in a line: flow cytometry on PC-3 tumor cells.
The target is the same in data set [6]. The experiment in a line: flow cytometry on MCF-7 tumor cells.
Data set [7] has the same target. The experiment in a line: flow cytometry on MCF-7 tumor cells. This is another data set of the same source.
Data set [8] addresses T2, human B7H3-4IgG-His (human) (UniProt Q5ZPR3).
T2 sequence: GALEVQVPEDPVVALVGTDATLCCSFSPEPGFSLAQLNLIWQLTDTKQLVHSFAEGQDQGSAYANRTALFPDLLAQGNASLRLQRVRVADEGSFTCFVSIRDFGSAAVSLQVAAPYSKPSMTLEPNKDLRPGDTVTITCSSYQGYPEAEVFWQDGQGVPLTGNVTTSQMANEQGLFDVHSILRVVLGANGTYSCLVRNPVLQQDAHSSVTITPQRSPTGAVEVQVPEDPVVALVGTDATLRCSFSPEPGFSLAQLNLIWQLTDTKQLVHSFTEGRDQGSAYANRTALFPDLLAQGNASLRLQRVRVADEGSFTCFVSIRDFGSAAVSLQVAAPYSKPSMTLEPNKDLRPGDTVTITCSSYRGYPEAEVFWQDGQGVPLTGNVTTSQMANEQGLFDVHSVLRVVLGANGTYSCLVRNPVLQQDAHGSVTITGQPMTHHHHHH
The experiment in a line: ELISA, antigen coated on the plate, anti-human Fc-HRP detection.

For data set [9], the target named is monkey B7H3-4IgG-His (monkey). The description is as above.
The target in data set [10] is T2, human B7H3-4IgG-His (human). Described as above. This is another data set of the same source.
Data set [11] concerns the target monkey B7H3-4IgG-His (monkey). Described as above. The source holds these as a separate data set.

Several values for one entry are separate records, joined by “and”; a condition that tells them apart may be missing. Equal values may be shown once. Where a name gives a salt, the structure may show the parent alone. Read-outs that look alike come from different tables or passages of the source.

For `C=C1C[C@@H]2CC[C@@]34C[C@H]5O[C@H]6[C@@H](O3)[C@H]3O[C@H](CC[C@@H]3O[C@H]6[C@H]5O4)CC(=O)C[C@@H]3[C@@H](OC)[C@@H](C[C@H](O)CN)O[C@H]3C[C@H]3O[C@@H](CC[C@@H]1O2)C[C@@H](C)C3=C` [Eribulin mesylate], in data set [1] (intravenous infusion on day 1, 8 and 15 of a 28-day cycle, patients), the “maximum tolerated dose (MTD)” value is 1.4 mg/m^2. The “grade 3-4 adverse events: neutropenia” value in data set [1] (patients treated with eribulin mesylate) is 64%.
A word on the IC50: it is the concentration that inhibits the measured activity by half. For `C=C1C[C@@H]2CC[C@@]34C[C@H]5O[C@H]6[C@@H](O3)[C@H]3O[C@H](CC[C@@H]3O[C@H]6[C@H]5O4)CC(=O)C[C@@H]3[C@@H](OC)[C@@H](C[C@H](O)CN)O[C@H]3C[C@H]3O[C@@H](CC[C@@H]1O2)C[C@@H](C)C3=C` [Eribulin, eribulin], the IC50 in the data set with SW480 is 1.38 nM; in the data set with A375 it was 1.14 nM; with A549, 0.31 nM; in the data set on HT29, 0.2 nM.
One may read the EC50 as the concentration giving half of the maximal effect. “B7H3-C1: anti-B7H3 antibody numbered M30-H1-L4 in CN103687945B”: the EC50 in [2] is 0.048 nM; with MCF-7 tumor cells (high B7H3-expressing cells) it was 1.71 nM and 1.36 nM; with A549 tumor cells it was 1.86 nM and 1.05 nM; with PC-3 tumor cells (low B7H3-expressing cells), 0.618 nM. In addition, the “MCF-7 tumor cells Maximum MFI” value in the data set with MCF-7 tumor cells was 83992 and 63194. For the same molecule, the “PC-3 tumor cells Maximum MFI” value in the data set with PC-3 tumor cells came to 6436.

B1: antibody B7H3-C1 (antibody, INN chains, looked up, V domains shown)
VH: QVQLVQSGAEVKKPGSSVKVSCKASGYTFTNYVMHWVRQAPGQGLEWMGYINPYNDDVKYNEKFKGRVTITADESTSTAYMELSSLRSEDTAVYYCARWGYYGSPLYYFDYWGQGTLVTVSS
VL: EIVLTQSPATLSLSPGERATLSCRASSRLIYMHWYQQKPGQAPRPLIYATSNLASGIPARFSGSGSGTDFTLTISSLEPEDFAVYYCQQWNSNPPTFGQGTKVEIK
B1: the EC50 in [3] amounted to 1.86 nM; in data set [4] it was 1.05 nM; in data set [5], 0.618 nM; in [6], 1.71 nM; in data set [7], 1.36 nM; in data set [8] it was 0.048 nM. Besides, the EC50 in [9] was determined as 0.167 nM; in data set [10] it was 0.0519 nM; in [11], 3.92 nM. Also, the Maximum MFI in [3] was determined as 8270; in [4], 48000; in data set [5] it was 6440; in data set [6], 84000; in data set [7], 63200.
